Laboratory results from doi:10.1101/2022.05.27.493400 (2022).

Target: human angiotensin-converting-enzyme-2 (ACE2) receptor, recombinant (human, UniProt Q9BYF1 18-740)
Test: SPR

Chain of human angiotensin-converting-enzyme-2 (ACE2) receptor, recombinant (Q9BYF1 18-740): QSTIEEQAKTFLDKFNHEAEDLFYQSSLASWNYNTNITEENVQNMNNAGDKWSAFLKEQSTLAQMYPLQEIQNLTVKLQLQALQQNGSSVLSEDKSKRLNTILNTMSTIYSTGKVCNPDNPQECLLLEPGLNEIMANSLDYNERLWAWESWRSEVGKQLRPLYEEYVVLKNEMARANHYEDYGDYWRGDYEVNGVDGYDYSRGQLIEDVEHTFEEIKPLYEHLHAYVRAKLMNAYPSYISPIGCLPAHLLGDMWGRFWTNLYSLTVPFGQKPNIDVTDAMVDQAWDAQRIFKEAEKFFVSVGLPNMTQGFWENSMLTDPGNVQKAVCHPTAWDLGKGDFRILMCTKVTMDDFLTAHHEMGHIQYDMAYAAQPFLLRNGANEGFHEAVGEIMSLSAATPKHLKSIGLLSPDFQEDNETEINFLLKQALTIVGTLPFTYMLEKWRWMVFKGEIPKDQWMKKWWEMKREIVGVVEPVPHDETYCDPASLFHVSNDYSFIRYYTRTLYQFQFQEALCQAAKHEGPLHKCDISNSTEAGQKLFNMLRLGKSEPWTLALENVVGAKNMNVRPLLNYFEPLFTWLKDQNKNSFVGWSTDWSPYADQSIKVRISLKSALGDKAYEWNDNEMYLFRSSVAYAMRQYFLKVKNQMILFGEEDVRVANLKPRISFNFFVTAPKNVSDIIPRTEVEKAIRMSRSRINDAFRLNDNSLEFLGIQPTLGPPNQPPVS

B1: pineapple-derived jacalin-related lectin AcmJRL (natural protein)
chain: SGLVKLGLWGGNEGTLQDIDGHPTRLTKIVIRSAHAIDALQFDYVEDGKTFAAGQWGGNGGKSDTIEFQPGEYLIAIKGTTGALGAVTNLVRSLTFISNMRTYGPFGLEHGTPFSVPVASGRIVAFYGRFGSLVDAFGIYLMPY
modifications: glycation (+162 Da, +324 Da) of lysines in part of the protein (ca. 10% bis-, 36% mono-modified, 54% unmodified); sites not determined
B1 was tested, and the Kd was 36.4 µM.
